Reference: the DeepSol protein solubility set

assay: soluble on expression in E. coli; label from the status in PepcDB or PDB records

Sequence	soluble on expression in E. coli
MGSDKIHHHHHHMLGTLKKLRAHLDEAQQVQYQLVVGEELLPLNPLIGQPLTLTHTGNIFCCNCGKKTKKSYSQGHCFVCMQKLASCDMCIMKPETCHFDQGTCREPEWAQSHCFVPHYVYLSNTSGIKVGITRHTQLPSRWIDQGATQGLPIFKVATRQISGLVEVELAKLINDKTHWQAMLKGHADDIDLQAKAAELIPHIEAKLHEIGMQKGNYSIERLQENIQTIHYPIEVFPKKITSHNFDKEAVVSGILQGIKGQYLLFDTGVINIRKFTAYEVSVTLTG	not soluble
MQDQVIICDLDNTIFDTSSIDPELFASLLHKATEYLSGSFTAEIILSIIQDIVSNPFDRVCEKYGLPKSMILPVLDELNGISLEHSAMVPYEDYAAFRAIPAYKILVTTGFKRLQEEKLRKLQIRQDFDRIIINDPVYANSSKLDIFRELSRELDLKDRKTYVVGDDPASEIKAGRELGFTTVLMVRKEYLSNSYTDYIISSFEGLRDLLRDNMENDYALRK	soluble
PLTSTVNGYRNVGYFAQWGVYGRAFQAKQLDVSGTAKNLTHINYSFGNINNQTLTCFMANKAQGTGPNGSDGAGDAWADFGMGYAADKSVSGKADTWDQPLAGSFNQLKQLKAKNPKLKVMISLGGWTWSKNFSKAAATEASRQKLVSSCIDLYIKGNLPNFEGRGGAGAAAGIFDGIDIDWEWPGTNSGLAGNGVDTVNDRANFKALLAEFRKQLDAYGSTNNKKYVLSAFLPANPADIDAGGWDDPANFKSLDFGSIQGYDLHGAWNPTLTGHQANLYDDPADPRAPSKKFSADKAVKKYLAAGIDPKQLGLGLAAYGRGWTGAKNVSPWGPATDGAPGTYETANEDYDKLKTLGTDHYDAATGSAWRYDGTQWWSYDNIATTKQKTDYIVSKGLGGGMWWELSGDRNGELVGAMSDKFRAAAPGPVTEAAPP	soluble
MDTFGLIQLAELIYEYCGIDFFKNLSSLESKISERLKELGLSCWEYGGYLRVEPKEWDTLIDLITVNETYFFREENLLEEFQKVILPKYKDRTPNNPLRIWSSACSSGEEPYTLAILSEETGLFETGAVEIIASDIDKKVLEKARRGLYNKKSFSFRTMPKEILDKYFISFGDDYKVKDSIRAMVDFRRVNLLDENKLEKVGEVDIVFCRNVLIYFDTKAINKVINSLYKVLRAGGYLFLGHAETITGMNTGFETIYTPSAFYYRKGERH	not soluble
MAHHHHHHMGTLEAQTQGPGSMKISFSEIIHNALKEDLGDKGDITTNSILINEKVNFAINTRENLVVCGIPILEEVFNMNKEHVKYEIHKKDGDITGKNSTLVSGEALAIYLLPIERVILNFIQHASGIASITRQFVDEVSGTKVKIRSTRKTTPGLRMLDKYSVCIGGGESYRDNLCDGVLIKDNHIASCGSITLAIQRLRKNLKNEYIAIECDNISQVEESLSNNVDMILLDNMSISEIKKAVDIVNGKSVLEVSGCVNIRNVRNIALTGVDYISIGCITNSFQNKDIGLDIEYNNNK	soluble
MAHHHHHHMSSGRRDIIFFGSIAVSILGHEVHDEAVAPQLERQNARIKLHTTARAPYAKTEEVFGLDATSPLYEIHSADFKASPTSSLTPQRGAPHPRHHRQKAAFLPVMLKLAQDAAVEEVPSIEDQDGALLQLDSPTNNVDPAPSYASASVRIEVDMSRSGGDATPVGTKEVFLPSLNYLAIRDMCTVVRIPVWSNTIQRSETGDVDVAELDRRSPQPQRAGDDNSSSSSGVLGGVRDRNSRGDAVSGVALSVYAMVRVISLAEKVRLALEADDAVRCLLGLPDPVPGVSLALTQRGDAPYGAMPLTELYKHHRQFFGYYSNTIIKHSNVVTQRLAEAPRQREADASFPHRWNTLTVVDLRPALLGEDAFAPLLVTLAYCANLRALYADGNHLGDLTCARLSALFRRHRYLARVSLSKNTIHEAGGEHLLRLVRNNLRITSMPCQGNYFSDALRSRIEEVARRNASVIAQDPLNIFSASYDYLTDLSSLPNSLQQQGLRTWAMLSAAPVGDVDVMVRNFTTSTQRTLGDSPVVAMQRAKTALRARESFSLIPPAALAPFLNEIMRTVSVGVSRVLPDPLVRSLFSDMETVVAREQEQVEAQRRDELAGGSRDASLLPPEVCDAVGGAYTPPVDSETMYARSFVRIVVAALRGVALGTPWAEIAKVLEGIGRVHRDLGVMPEDYWLAVHIFMTSLRISCGAECYDADSASSFLGLLALAVRTAVGTDTVLQ	not soluble
MSSRTANSSSRNDESLRTGQHKENPNYWGFANFPNQVFRRAVKNGFDFTLMVVGRSGLGKSTFINTLFLAEINNLNEKESAPTHPHPSTVRVEEKLVKLVENSVSLNLTLVDTPGFGDAVNNSKCWEPIVNYVESKFFEQFCEETRIDRGEKIVDKCVHLCLYFIEPSGHGLKPIDIELMKHLHGRVNIVPVISKADCLTRDELLRFKKQIVKDAETAEIKLYKFPELEDPYTDKVAIEKLRKALPFAIIGSNMLKEKDGKKIRYREYPWGTVEVENMQHNDFLTLRDMIIRTNLIDMIDVTRNVHYENFRFRQMEGLPKNEKNRDPFTHLEEERRQKEQDLDEKRNTLEKVFTEKTSARKKRSDERMSALEELEQQNKQKIDAKRAEIIRLRHEISELKNGNLTSSQTSLAMYNENNHSQNSTLNSTTKSSPPPTSATSSSSGTMKKRMGGLGLFNRN	not soluble
MGSDKIHHHHHHMKLIATDMDGTLLNDERKISKENAEAIKAAQQDGIHVVVATGRDFKEASMPLKEAGLTCPILCVNGAEERSANGELIHAVSLAKNEALTILDILTAADVYFEVYTNRGAFTDDYEKGLEIVIDVLQSAGSDDSYEKMREIAKHRFESGAVQLTEDYTKLIDSTAVYKFLAFSRDETKRQAAKDDLEKKDVFSVSASASDNLEITHWQAQKGIALRRLAERLGINSDDVMAIGDNLNDVSMLKYAGTAVAMENGEAEVKQLADFVTASNEDNGVAKAINKWLK	not soluble
SDQVFVMGHRYPDMDVIGSSLGVMRIAEMNNRNAYVVVEPGKMSPDVKRLMNEIEEYPNVIKNIVTPQVALENITEKSLLVVVDTHKPSMVINKELLDSATNVVVVDHHRRSEEFVGNPVLVYIEPYASSTAELITELFEYQPDLEQVGKIEATALLSGIVVDTKNFTLRTGSRTFDAASYLRSLGADTILVQQFLKEDI	not soluble
MSKILDVQGIVKRATELNDFGHLLEHVPYAKFIGMKVERFGDELIFKLPAKDDNIGNPILPAIHGGVIAGFMEMSAIVQLMVFMQTAKVPKVVDFSIDYLRAGLHKDSFAECRITRQGRRVANVSINCWQTNRKQLIATARAHFLIDLEHHHHHH	not soluble
MAKENPPIVFGPVLSRRFGKSLGVDLSPSKKQCNYNCIYCELGKAKPIERMEEVIKVETLINAIQNALNNLTTPIDVLTITANGEPTLYPHLLELIQSIKPFLKGVKTLILSNGSLFYEPKVQQALKEFDIVKFSLDAIDLKAFERVDKPYSKDINKILEGILRFSQIYQGQLVAEVLLIKGVNDSANNLKLIAAFLKQINIARVDLSTIDRPSSFKAPKLSEDELLKCSLFFEGLCVSLPKRSITQAKKLISCGIDELLALISRRPLSAEEAPLILDSNAFKHLETLLNHKQITIKKVGSLEFYCAFLEHHHHHH	not soluble
MASYTSEQAEALLKLQFDKYAKFIDDEVWAEVEGYYHPSGVLVHKGKEAVYGNKDKSTYIAKFAEGTGKSVGTTTNAKYEGSGDYLIITADFSSETEKAGTVKGRFVQI	not soluble
MSLASLPISNFFTFNHQSTLFTKVKNFMGVKHIGDCMKALINGTIYTSFSPVKKVSGLVISNERVLYAGDSSTALRIAELAGGEIIDLKGKFVMPAFFDSHLHLDELGMSLEMVDLRGVKSMEELVERVKKGRGRIIFGFGWDQDELGRWPTREDLDVIDRPVFLYRRCFHVAVMNSKMIDLLNLKPSKDFDESTGIVRERALEESRKIINEKILTVKDYKHYIESAQEHLLSLGVHSVGFMSVGEKALKALFELEREGRLKMNVFAYLSPELLDKLEELNLGKFEGRRLRIWGVKLFVDGSLGARTALLSEPYTDNPTTSGELVMNKDEIVEVIERAKPLGLDVAVHAIGDKAVDVALDAFEEAEFSGRIEHASLVRDDQLERIKELKVRISAQPHFIVSDWWIVNRVGEERAKWAYRLKTLSSITKLGFSTDSPIEPADPWVSIDAAVNRYVVDPGERVSREEALHLYTHGSAQVTLAEDLGKLERGFRAEYIILDRDPLKEMKGIITITTDPNSSSVDKLAAALEHHHHHH	soluble
MLWMVIGMWDTSKDYRLMVAVKAVDLFRRTLESGGFRGQWKKKPALQAAGEIERILQGLTYCYMEPEDLASSPEVMEIKGKVEEIVEALGGEDWSRRFLEEAPREEREKVEENIARVRFFLNTLGNLDRRLMLGKISDPVIGVDIITGEVMSVGNHPVADKLHVCNVNAGGRSIKVVTNDLDVRENDHVAVALLPPQNFMGVTSEGMFLGVEGVLRDVDGEPGEMPRGIPLEALNETRNLVEEFLKS	soluble
MKASIYDFTLKELSQLLKPSFRAKQLYLWLYAKYKTSFKDMQNNFSKDFIAYLEREFALRTIEITHVRESVDGSKKYLFKSLRDNHTFEAVLLKMKDKKIDAETNAILEREKYTVCVSCQIGCQVGCSFCFTQKGGFVRNLKASEIIQQALLIKEDNNLPLEKALNIVFMGMGEPLNNLDEVCKAIEIFNTGMQISPKRITISTSGVADKIPILAGKNLGVQLAISLHAVDDKTRSSLMPLNKKYNIECVLNEVRKWPLEQRKRVMFEYLLIKDLNDSLDCAKKLLKLLNGIKSKVNLILFNPHEGSKFERPSLENARMFADFLNSKGLLCTIRESKALDIEAACGQLREKKLSQQILEHHHHHH	soluble
MSLGYDHPEILLNFKKDADIWDMMLNTNYMKTCREVVFEYLGVKNGDTVLEVGCGSRSPVYFASKVAPNGAYTGVDISKKLIRVAEGRLKRSGVECVNLKSMDFSETITKYKHDYVLCIHTLSYAHSMKLFLKKMMESLRKGGKLLIMEEFFTENINTNAELFEFYNHLNKYFKNYVSRTEILKEIEMLGYDFKYELLGNNCIVVERIEGHHHHHH	not soluble
MRVALTIAGSDSGGGAGVQADLKVFFRFGVYGTSALTLVTAQNTLGVQRVHLLPPEVVYAQIESVAQDFPLHAAKTGALGDAAIVEAVAEAVRRFGVRPLVVDPVMVAKSGDPLLAKEAAAALKERLFPLADLVTPNRLEAEALLGRPIRTLKEAEEAAKALLALGPKAVLLKGGHLEGEEAVDLLATRGGVLRFSAPRVHTRNTHGTGCTLSAAIAALLAKGRPLAEAVAEAKAYLTRALKTAPSLGHGHGPLDHWA	soluble
MGSDKIHHHHHHVLRAGLIHSLASRPQTWHSTAMDSDGYEIETHVGRRRAMRYHFWIDHEILRYPWTNFDEIAPGVFRSNHPTRARFKAYAERGIKTILTLRGGEDRPHHLLEVEACRDFGLTFECVPMSARHAPTVAQLSAVFEVLDRIERPFLIHCKSGADRTGLVSAIYLMHYENIPFDQARVQLSFRYIHIRRSQTGILDVFLEAFAARHAETGIGIRDWIMTEYDEAALTASFDQRQRNLWPWEGWRSGVS	not soluble
MRIAVASGKGGTGKTTVAVNLAVFNHIDLFDLDVEEPNDRIFIKGEAEEWPAYRKVPEVRENCNACGVCKDVCQYSAIYVIDKAYPLPELCHSCGACIYLCPEKAMEEVDYQTGKIVRVKSDITLTYGEMRIGEASAVFLIKQVKELMGKNAIIDSPPGASCPMVESVSDADYVILVAEPTPFGLHDLKIAAEVVSDLGLKFGVVVNKHGLPFDGIERYCKEGGVEILGKIPFSKEIAEKYSRGELLHDMKDFFVQLYEGIALEHHHHHH	soluble
MGSSHHHHHHSSGLVPRGSHMYLGRILAVGRNSNGSFVAYRVSSRSFPNRTTSIQEERVAVVPVEGHERDVFRNPYIAYNCIRIVGDTAVVSNGSHTDTIADKVALGMNLRDAIGLSLLAMDYEKDELNTPRIAAAINGSEAFIGIVTADGLMVSRVPEETPVYISTYEQTEPAATEFKAGSPEEAAEFILKGGEFAAFTHPVTAAAAFNDGEGWNLATREM	soluble
